{"source": "the Immune Epitope Database (IEDB)", "key": {"HLA-B*08:01": {"biological_target": "HLA-B*08:01", "assay": "IEDB peptide-MHC binding, purified MHC/direct/fluorescence; filed as Kd, often an IC50 or EC50 that approximates it; ≥ and ≤ were set here for values at or beyond the usual limits of such assays", "conditions": "source organism: Burkholderia mallei ATCC 23344"}, "HLA-B*08:02": {"biological_target": "HLA-B*08:02", "assay": "IEDB peptide-MHC binding, purified MHC/direct/fluorescence; filed as Kd, often an IC50 or EC50 that approximates it; ≥ and ≤ were set here for values at or beyond the usual limits of such assays", "conditions": "source organism: Burkholderia mallei ATCC 23344"}, "HLA-C*05:01": {"biological_target": "HLA-C*05:01", "assay": "IEDB peptide-MHC binding, purified MHC/direct/fluorescence; filed as Kd, often an IC50 or EC50 that approximates it; ≥ and ≤ were set here for values at or beyond the usual limits of such assays", "conditions": "source organism: Burkholderia mallei SAVP1"}, "HLA-C*06:02": {"biological_target": "HLA-C*06:02", "assay": "IEDB peptide-MHC binding, purified MHC/direct/fluorescence; filed as Kd, often an IC50 or EC50 that approximates it; ≥ and ≤ were set here for values at or beyond the usual limits of such assays", "conditions": "source organism: Burkholderia mallei SAVP1"}, "HLA-C*07:02": {"biological_target": "HLA-C*07:02", "assay": "IEDB peptide-MHC binding, purified MHC/direct/fluorescence; filed as Kd, often an IC50 or EC50 that approximates it; ≥ and ≤ were set here for values at or beyond the usual limits of such assays", "conditions": "source organism: Burkholderia mallei SAVP1"}, "HLA-C*14:02": {"biological_target": "HLA-C*14:02", "assay": "IEDB peptide-MHC binding, purified MHC/direct/fluorescence; filed as Kd, often an IC50 or EC50 that approximates it; ≥ and ≤ were set here for values at or beyond the usual limits of such assays", "conditions": "source organism: Burkholderia mallei SAVP1"}, "HLA-C*15:02": {"biological_target": "HLA-C*15:02", "assay": "IEDB peptide-MHC binding, purified MHC/direct/fluorescence; filed as Kd, often an IC50 or EC50 that approximates it; ≥ and ≤ were set here for values at or beyond the usual limits of such assays", "conditions": "source organism: Burkholderia mallei SAVP1"}, "HLA-B*15:42": {"biological_target": "HLA-B*15:42", "assay": "IEDB peptide-MHC binding, purified MHC/competitive/fluorescence; filed as Kd, often an IC50 or EC50 that approximates it; ≥ and ≤ were set here for values at or beyond the usual limits of such assays", "conditions": "source organism: Burkholderia mallei SAVP1"}, "HLA-B*27:20": {"biological_target": "HLA-B*27:20", "assay": "IEDB peptide-MHC binding, purified MHC/competitive/fluorescence; filed as Kd, often an IC50 or EC50 that approximates it; ≥ and ≤ were set here for values at or beyond the usual limits of such assays", "conditions": "source organism: Burkholderia mallei SAVP1"}, "HLA-B*45:06": {"biological_target": "HLA-B*45:06", "assay": "IEDB peptide-MHC binding, purified MHC/competitive/fluorescence; filed as Kd, often an IC50 or EC50 that approximates it; ≥ and ≤ were set here for values at or beyond the usual limits of such assays", "conditions": "source organism: Burkholderia mallei SAVP1"}, "HLA-B*83:01": {"biological_target": "HLA-B*83:01", "assay": "IEDB peptide-MHC binding, purified MHC/competitive/fluorescence; filed as Kd, often an IC50 or EC50 that approximates it; ≥ and ≤ were set here for values at or beyond the usual limits of such assays", "conditions": "source organism: Burkholderia mallei SAVP1"}}}
{"sequence": "YARRYFYPL", "values": [{"measurement": "Kd", "setting": "HLA-B*08:01", "value": 2, "unit": "nM"}, {"measurement": "Kd", "setting": "HLA-B*08:02", "value": 43, "unit": "nM"}, {"measurement": "Kd", "setting": "HLA-C*05:01", "value": "≥ 20000", "unit": "nM"}, {"measurement": "Kd", "setting": "HLA-C*06:02", "value": "≥ 20000", "unit": "nM"}, {"measurement": "Kd", "setting": "HLA-C*07:02", "value": 362, "unit": "nM"}, {"measurement": "Kd", "setting": "HLA-C*14:02", "value": 696, "unit": "nM"}, {"measurement": "Kd", "setting": "HLA-C*15:02", "value": 11, "unit": "nM"}, {"measurement": "Kd", "setting": "HLA-B*15:42", "value": "≥ 5000", "unit": "nM"}, {"measurement": "Kd", "setting": "HLA-B*27:20", "value": 24.4, "unit": "nM"}, {"measurement": "Kd", "setting": "HLA-B*45:06", "value": "≥ 5000", "unit": "nM"}, {"measurement": "Kd", "setting": "HLA-B*83:01", "value": "≥ 5000", "unit": "nM"}]}
